Experimental data reported in publication PMC3120127.

Experiments:
Experiment in all cases: split reporter
[1] = molecular target: N-FLUC-PFE1350c (amino acids 9-135) (P. falciparum)
[2] = molecular target: N-FLUC negative control (firefly)
[3] = molecular target: N-FLUC-PfMyb2 fragment #13 (P. falciparum)

fold luciferase signal over N-FLUC-PFE1350c plus the C-FLUC negative control [1] | fold luciferase signal over the N-FLUC fusion plus the C-FLUC negative control [3] | Substance | fold luciferase signal over the N-FLUC fusion plus the C-FLUC negative control [1] | fold luciferase signal over N-FLUC-PFE1350c plus the C-FLUC negative control [2]
 |  | PFC0255c-C-FLUC (amino acids 4-137) (domain or fragment) | > 600 fold | < 2.3 fold
< 2.3 fold | 36 fold | PFC0365w-C-FLUC (amino acids 45-205) (domain or fragment) |  | 
< 2.3 fold |  | PFL1705w-C-FLUC (amino acids 95-213) (domain or fragment) |  | 
